# Target: RGG+CTD (Homo sapiens, UniProt Q06787 527-632)
# Experiment: EMSA; 10 mM Tris-HCl, 100 mM KCl, 5 mM Mg(OAc)2, pH 7.4, BSA, on ice 1 h; mRNA EMSA 0.4 pmol RNA + 20 pmol protein in 18 ul; oligo EMSA 0.2 (G17: 0.4) pmol RNA + 22 pmol protein in 7 ul; FP 5.5 pmol RNA + 300 pmol protein in 100 ul; EMSA gels 4% PAGE 0.5x TBM (2.5 mM MgCl2), RT
# Conditions: protein: recombinant; tags: N-MBP, C-His6; label: 5' FAM; single strand
binder,measurement,value
UUUUUUUUUUUUUUUUUU (ssRNA) [(U)18],binding result,binds
